Measured values reported in patent US20250361274A1, “PEPTIDE AND PEPTIDE-CONTAINING AGENT” (PEPTIDREAM INC., priority 2022, published 2025).
Numbered stars: 1 amine (or outer) side, 2 acyl side, 3 side chain; on linkers, the order of the positions; unused ones are H or OH. Bridge positions count the residues as written; N and C are the ends. Square brackets hold non-standard residues; d marks the D form. Ends that are not written are not given here. KCOpipzaa = N6-(4-(carboxymethyl)piperazine-1-carbonyl)-L-lysine, O=C(NCCCC[C@H](N[*:1])C(=O)[*:2])N1CCN(CC(=O)[*:3])CC1; Bph3C = (S)-2-amino-3-(3'-chloro-[1,1'-biphenyl]-4-yl)propanoic acid, O=C([C@H](Cc1ccc(-c2cccc(Cl)c2)cc1)N[*:1])[*:2]; F44thp = (S)-2-amino-3-[4-(tetrahydro-2H-pyran-4-yl)phenyl]propanoic acid, O=C([C@H](Cc1ccc(C2CCOCC2)cc1)N[*:1])[*:2]; Ala(2-NH2-4-pyridyl) = Nc1cc(C[C@H](N)C(=O)O)ccn1; 3Pal(6-Ph) = N[C@@H](Cc1ccc(-c2ccccc2)nc1)C(=O)O; Phe(4-COOH) = N[C@@H](Cc1ccc(C(=O)O)cc1)C(=O)O; NMePhe(4-Me) = CN[C@@H](Cc1ccc(C)cc1)C(=O)O; Bip = N[C@@H](Cc1ccc(-c2ccccc2)cc1)C(=O)O; Phe(3-Cl) = N[C@@H](Cc1cccc(Cl)c1)C(=O)O; Phe(4-F) = N[C@@H](Cc1ccc(F)cc1)C(=O)O; cisHyp = O=C(O)[C@@H]1C[C@H](O)CN1; Hyp = O=C(O)[C@@H]1C[C@@H](O)CN1; NMeF = CN[C@@H](Cc1ccccc1)C(=O)O; hCit = NC(=O)NCCCC[C@H](N)C(=O)O; 3Pal = N[C@@H](Cc1cccnc1)C(=O)O; 4Pal = N[C@@H](Cc1ccncc1)C(=O)O; Aad = N[C@@H](CCCC(=O)O)C(=O)O; Cha = N[C@@H](CC1CCCCC1)C(=O)O; Gly(cPr) = N[C@H](C(=O)O)C1CC1; Cba = N[C@@H](CC1CCC1)C(=O)O; Chg = N[C@H](C(=O)O)C1CCCCC1; βAla = NCCC(=O)O

Experiments:
BMP7 = target: T1, BMP7 (Homo sapiens, UniProt P18075); experiment: BMP7 signal transduction inhibitory activity: SMAD1 phosphorylation by BMP7 stimulus, A549 cells; format: cell-based; conditions: for aLISA BMP7: A549 cells
T1 sequence (P18075 293-431): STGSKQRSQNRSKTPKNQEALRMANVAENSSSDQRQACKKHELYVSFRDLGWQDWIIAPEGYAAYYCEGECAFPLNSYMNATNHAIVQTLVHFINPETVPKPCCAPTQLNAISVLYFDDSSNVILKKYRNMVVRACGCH
Summary of the method: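 A549 cells were stimulated with 10 nM BMP7, and the read-out was SMAD1 phosphorylation. Peptides were tested at three concentrations spanning 1 to 1,000 nM, with sets depending on the peptide series. Some peptides were run in eight-point 1/3 dilutions starting from 100 nM or 1,000 nM, with recombinant human Noggin as positive control at matching concentrations.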

BMP4 = target: T2, BMP4 (Homo sapiens, UniProt P12644); experiment: BMP4 signal transduction inhibitory activity: SMAD1 phosphorylation by BMP4 stimulus, AlphaLISA SureFire, A549 cells; format: cell-based; conditions: for aLISA BMP4: A549 cells
T2 sequence (P12644 293-408): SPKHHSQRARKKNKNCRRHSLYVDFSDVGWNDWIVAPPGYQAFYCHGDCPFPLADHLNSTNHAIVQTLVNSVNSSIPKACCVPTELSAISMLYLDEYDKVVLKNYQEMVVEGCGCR

[1] = SMAD1 phosphorylation, BMP7 10 nM, peptide conc. in assay 1, 10, 100 nM
[2] = SMAD1 phosphorylation, BMP4 0.2 nM, peptide conc. in assay 0.2, 2, 20 nM
[3] = 10 nM BMP7, peptides of Synthesis 2, peptide 1, 10, 100 nM
[4] = SMAD1 phosphorylation, peptides of Synthesis 2, peptide 0.02, 0.2, 2 nM
[5] = BMP7 10 nM stimulus, peptide conc. in assay 1, 10, 100 nM
[6] = BMP4 0.2 nM stimulus, peptide conc. in assay 0.2, 2, 20 nM
[7] = inhibition of SMAD1 phosphorylation by BMP7 stimulus, AlphaLISA, class by peptide concentration zone
[8] = inhibition of SMAD1 phosphorylation by BMP4 stimulus, AlphaLISA, class by peptide concentration zone

## 135 ({CH2CO}-ERVYVD[hCit][Bip]PYV[Bip]Y[Phe(4-COOH)][Phe(4-COOH)]SCG-NH2; thioether N-17; not fully specified) [compound 135]
BMP7; inhibition of SMAD1 phosphorylation by BMP7 stimulus, peptides of Synthesis 1, classes E, F, ND
  aLISA BMP7: E (showed 50% or more of inhibitory activity in a zone to which the peptide was added in an amount of 10 nM)
BMP4; inhibition of SMAD1 phosphorylation by BMP4 stimulus, peptides of Synthesis 1, classes D-F, ND
  aLISA BMP4: E (showed less than 50% of inhibitory activity in 0.2 nM-addition zone and showed 50% or more of inhibitory activity in 2 nM-addition zone)

## 379 (FG[NMeF]G[Phe(3-Cl)]GDD[Cha]A[NMeF]LHCG-NH2; not fully specified) [compound 379]
BMP7; BMP7 10 nM stimulus, peptide conc. in assay 10, 30, 90 nM
  aLISA BMP7 (10 nM) % inh: G (showed less than 30% of inhibitory activity in 30 nM-addition zone and showed 30% or more of inhibitory activity in 90 nM-addition zone)
BMP4; BMP4 0.2 nM stimulus, peptide conc. in assay 2, 20, 200 nM
  aLISA BMP4 (0.2 nM) % inh: ND (the inhibitory activity was less than 30% at the maximum concentration evaluated)

## 360 (FG[NMeF]G[Bip]GDE[Cha]A[NMeF]L[Ala(2-NH2-4-pyridyl)]CG-NH2; not fully specified (N-terminus, bridges)) [compound 360]
BMP7; [1]
  aLISA BMP7 (10 nM) % inh: D (showed less than 30% of inhibitory activity in 10 nM-addition zone and showed 30% or more of inhibitory activity in 100 nM-addition zone)
BMP4; [2]
  aLISA BMP4 (0.2 nM) % inh: ND (the inhibitory activity was less than 30% at the maximum concentration evaluated)

## 347 (FG[NMeF]G[Bip]GDD[Cha]A[NMeF][Chg]HCG-NH2; not fully specified (N-terminus, bridges)) [compound 347]
BMP7; [1]
  aLISA BMP7 (10 nM) % inh: D (showed less than 30% of inhibitory activity in 10 nM-addition zone and showed 30% or more of inhibitory activity in 100 nM-addition zone)
BMP4; [2]
  aLISA BMP4 (0.2 nM) % inh: ND (the inhibitory activity was less than 30% at the maximum concentration evaluated)

## 18 ({CH2CO}-ARVYVDR[Bip]SYP[Bip]Y[Phe(4-COOH)][Phe(4-COOH)]SCG-NH2; thioether N-17; not fully specified) [compound 18]
BMP7; [3]
  aLISA BMP7: C (showed less than 50% of inhibitory activity in 10 nM-addition zone and showed 50% or more of inhibitory activity in 100 nM-addition zone)
BMP4; [4]
  aLISA BMP4: A (showed an inhibitory activity of 50% or more in a zone to which the peptide was added to in an amount of 0.2 nM)

## 414 (FG[NMeF]G[3Pal(6-Ph)]GDE[Cha][Aad][NMeF]L[cisHyp]C-NH2; not fully specified) [compound 414]
BMP7; [5]
  aLISA BMP7 (10 nM) % inh: D (showed less than 30% of inhibitory activity in 10 nM-addition zone and showed 30% or more of inhibitory activity in 100 nM-addition zone)
BMP4; [6]
  aLISA BMP4 (0.2 nM) % inh: ND (the inhibitory activity was less than 30% at the maximum concentration evaluated)

## 78 ({CH2CO}-ERVYVDR[Bip][KCOpipzaa]YP[Bip][Phe(4-F)][Phe(4-COOH)][4Pal]SCG-NH2; thioether N-17; not fully specified) [compound 78]
BMP7; [7]
  aLISA BMP7: C (showed less than 50% of inhibitory activity in 10 nM-addition zone and showed 50% or more of inhibitory activity in 100 nM-addition zone)
BMP4; [8]
  aLISA BMP4: A (showed an inhibitory activity of 50% or more in a zone to which the peptide was added to in an amount of 0.2 nM)

## 272 (ERV[Phe(4-COOH)][Gly(cPr)]DR[3Pal(6-Ph)]SYV[Bip][4Pal][Phe(4-COOH)][Phe(4-COOH)]SCG-NH2; not fully specified (N-terminus, bridges)) [compound 272]
BMP7; BMP7 10 nM stimulus, peptide conc. in assay 10, 100, 1000 nM, class symbols
  aLIZA BMP7 (10 nM) % inh: ND (the inhibitory activity was less than 30% at the maximum concentration evaluated)
BMP4; BMP4 0.2 nM stimulus, peptide conc. in assay 0.02, 0.2, 2 nM, class symbols
  aLIZA BMP4 (0.2 nM) % inh: C (showed less than 30% of inhibitory activity in 0.2 nM-addition zone and showed 30% or more of inhibitory activity in 2 nM-addition zone)

## 323 ([3Pal]G[NMeF]G[Bip]GDD[Cha]A[NMeF]LHCG-NH2; not fully specified) [compound 323]
BMP7; [1]
  aLISA BMP7 (10 nM) % inh: D (showed less than 30% of inhibitory activity in 10 nM-addition zone and showed 30% or more of inhibitory activity in 100 nM-addition zone)
BMP4; [2]
  aLISA BMP4 (0.2 nM) % inh: ND (the inhibitory activity was less than 30% at the maximum concentration evaluated)

## 43 (Ac-AKVYVD[4Pal][Bip]PYP[Bip]Y[Phe(4-COOH)][Phe(4-COOH)]SCG-NH2; thioether (positions not given here); not fully specified (bridges)) [compound 43]
BMP7; [7]
  aLISA BMP7: ND (the inhibitory activity was less than 30% at the maximum concentration evaluated)
BMP4; [8]
  aLISA BMP4: C (showed an inhibitory activity of less than 50% in 0.2 nM-addition zone and showed an inhibitory activity of 50% or more in 2 nM-addition zone were defined as B or C)

## 352 (FG[NMeF]G[Bip]GDD[Cha]A[NMeF]LGCG-NH2; not fully specified (N-terminus, bridges); also: cyclic peptide, ring closure not given here) [compound 352]
BMP7; [1]
  aLISA BMP7 (10 nM) % inh: D (showed less than 30% of inhibitory activity in 10 nM-addition zone and showed 30% or more of inhibitory activity in 100 nM-addition zone)
BMP4; [2]
  aLISA BMP4 (0.2 nM) % inh: ND (the inhibitory activity was less than 30% at the maximum concentration evaluated)

## 36 ({CH2CO}-AKVYV[KCOpipzaa]K[Bip]PYP[Bip]Y[Phe(4-COOH)][Phe(4-COOH)]SCG-NH2; thioether N-17; not fully specified) [compound 36]
BMP7; [3]
  aLISA BMP7: ND (the inhibitory activity was less than 30% at the maximum concentration evaluated)
BMP4; [4]
  aLISA BMP4: A (showed an inhibitory activity of 50% or more in a zone to which the peptide was added to in an amount of 0.2 nM)

## 413 ([Phe(4-F)]G[NMeF]G[3Pal(6-Ph)]GDE[Cha][Aad][NMePhe(4-Me)]L[Phe(4-COOH)]C[βAla][dE]) [compound 413]
BMP7; [5]
  aLISA BMP7 (10 nM) % inh: D (showed less than 30% of inhibitory activity in 10 nM-addition zone and showed 30% or more of inhibitory activity in 100 nM-addition zone)
BMP4; [6]
  aLISA BMP4 (0.2 nM) % inh: ND (the inhibitory activity was less than 30% at the maximum concentration evaluated)

## 314 (ERV[Phe(4-COOH)][Cba][KCOpipzaa]R[3Pal(6-Ph)][KCOpipzaa]Y[Hyp][Bph3C]Y[Phe(4-COOH)][Phe(4-COOH)]SCG-NH2; not fully specified) [compound 314]
BMP7; BMP7 10 nM, peptide 10, 100, 1000 nM, Table 6
  aLIZA BMP7 (10 nM) % inh: E (showed less than 30% of inhibitory activity in 100 nM-addition zone and showed 30% or more of inhibitory activity in 1,000 nM-addition zone)
BMP4; BMP4 0.2 nM, peptide 0.02, 0.2, 2 nM, Table 6
  aLIZA BMP4 (0.2 nM) % inh: B (showed less than 30% of inhibitory activity in 0.02 nM-addition zone and showed 30% or more of inhibitory activity in 0.2 nM-addition zone)

## 358 (FG[NMeF]G[Bip]GDE[Cha]A[NMeF]LHCG-NH2; not fully specified (N-terminus, bridges)) [compound 358]
BMP7; [1]
  aLISA BMP7 (10 nM) % inh: D (showed less than 30% of inhibitory activity in 10 nM-addition zone and showed 30% or more of inhibitory activity in 100 nM-addition zone)
BMP4; [2]
  aLISA BMP4 (0.2 nM) % inh: ND (the inhibitory activity was less than 30% at the maximum concentration evaluated)

## 349 (FG[NMeF]G[Bip]GDD[Cha]A[NMeF]LLCG-NH2; not fully specified (N-terminus, bridges)) [compound 349]
BMP7; [1]
  aLISA BMP7 (10 nM) % inh: D (showed less than 30% of inhibitory activity in 10 nM-addition zone and showed 30% or more of inhibitory activity in 100 nM-addition zone)
BMP4; [2]
  aLISA BMP4 (0.2 nM) % inh: ND (the inhibitory activity was less than 30% at the maximum concentration evaluated)

## 50 (Ac-ARVYVDR[Bip]PYP[Bip]Y[Phe(4-COOH)][Phe(4-COOH)]SC[βAla]K(OCOmPEG10000)-NH2; thioether (positions not given here); not fully specified (bridges)) [compound 50]
BMP7; [7]
  aLISA BMP7: B (showed less than 50% of inhibitory activity in 1 nM-addition zone and showed 50% or more of inhibitory activity in 10 nM-addition zone)
BMP4; [8]
  aLISA BMP4: D (showed inhibitory activity of less than 50% in 2 nM-addition zone)

## 245 (LRVYVDR[3Pal(6-Ph)]SYV[Bip]Y[Phe(4-COOH)][Phe(4-COOH)]SCG) [compound 245]
BMP7; SMAD1 phosphorylation by BMP7 stimulus, peptide conc. in assay 10, 100, 1000 nM, class symbols
  aLIZA BMP7 (10 nM) % Inh: ND (the inhibitory activity was less than 30% at the maximum concentration evaluated)
BMP4; SMAD1 phosphorylation by BMP4 stimulus, peptide conc. in assay 0.02, 0.2, 2 nM, class symbols
  aLIZA BMP4 (0.2 nM) % Inh: C (showed less than 30% of inhibitory activity in 0.2 nM-addition zone and showed 30% or more of inhibitory activity in 2 nM-addition zone)

## 329 (FG[NMeF]G[F44thp]GDD[Cha]A[NMeF]LHCG-NH2; not fully specified (N-terminus, bridges)) [compound 329]
BMP7; [1]
  aLISA BMP7 (10 nM) % inh: D (showed less than 30% of inhibitory activity in 10 nM-addition zone and showed 30% or more of inhibitory activity in 100 nM-addition zone)
BMP4; [2]
  aLISA BMP4 (0.2 nM) % inh: ND (the inhibitory activity was less than 30% at the maximum concentration evaluated)
